# In the MegaScale stability set (Tsuboyama et al. 2023):
# B1: EHEE_rd2_0196 (parent)
# chain: TETRTFDSEEEAKKAQKEAEKQGRTVTITRRDDRWEVRFD
# Variants of: B1
# Assay: folding stability dG (cDNA display proteolysis); higher = more stable
# Conditions: PBS, room temperature
row,Variant,folding stability dG
1,T25D,1.97 kcal/mol
2,T25V,3.09 kcal/mol
3,T25Y,2.33 kcal/mol
4,T25M,2.67 kcal/mol
5,T25H,3.16 kcal/mol
6,T25P,2.21 kcal/mol
7,T25G,2.32 kcal/mol
8,T25I,2.99 kcal/mol
9,T25N,2.69 kcal/mol
10,T25Q,2.81 kcal/mol
11,T25W,2.22 kcal/mol
12,T25R,3.32 kcal/mol
13,T25E,2.28 kcal/mol
14,T25F,2.43 kcal/mol
15,T25A,2.83 kcal/mol
16,T25S,2.9 kcal/mol
17,T25L,2.77 kcal/mol
18,T25K,3.13 kcal/mol
19,V26F,0.841 kcal/mol
20,V26M,1.18 kcal/mol
21,V26G,2.61 kcal/mol
22,V26T,2.76 kcal/mol
23,V26Y,0.849 kcal/mol
24,V26K,0.184 kcal/mol

row,Variant,folding stability dG
1,V26P,1.87 kcal/mol
2,V26N,0.69 kcal/mol
3,V26S,3 kcal/mol
4,V26E,0.318 kcal/mol
5,V26D,0.12 kcal/mol
6,V26I,2.08 kcal/mol
7,V26C,3.6 kcal/mol
8,V26R,0.117 kcal/mol
9,V26H,0.258 kcal/mol
10,V26A,3.4 kcal/mol
11,V26Q,0.065 kcal/mol
12,V26W,0.253 kcal/mol
13,V26L,1.23 kcal/mol
14,K21S,3.19 kcal/mol
15,K21F,2.66 kcal/mol
16,K21P,1.11 kcal/mol
17,K21A,3.41 kcal/mol
18,K21M,3.11 kcal/mol
19,K21R,3.11 kcal/mol
20,K21D,3.08 kcal/mol
21,K21W,2.55 kcal/mol
22,K21N,2.96 kcal/mol
23,K21I,2.82 kcal/mol
24,K21V,2.72 kcal/mol

row,Variant,folding stability dG
1,K21E,3.18 kcal/mol
2,K21T,2.85 kcal/mol
3,K21L,3.22 kcal/mol
4,K21Q,3.11 kcal/mol
5,K21H,2.82 kcal/mol
6,K21G,3.06 kcal/mol
7,K21Y,2.64 kcal/mol
8,I28C,2.46 kcal/mol
9,I28A,0.842 kcal/mol
10,Q22W,2.8 kcal/mol
11,Q22Y,2.73 kcal/mol
12,Q22S,2.92 kcal/mol
13,Q22A,3.08 kcal/mol
14,Q22N,3.02 kcal/mol
15,Q22I,2.83 kcal/mol
16,Q22G,2.58 kcal/mol
17,Q22R,2.84 kcal/mol
18,Q22E,3.06 kcal/mol
19,Q22C,3.26 kcal/mol
20,Q22M,3.24 kcal/mol
21,Q22P,1.55 kcal/mol
22,Q22H,2.99 kcal/mol
23,Q22D,2.88 kcal/mol
24,Q22K,2.73 kcal/mol

row,Variant,folding stability dG
1,Q22F,2.79 kcal/mol
2,Q22T,2.82 kcal/mol
3,Q22V,2.81 kcal/mol
4,Q22L,3.19 kcal/mol
5,E20M,3.06 kcal/mol
6,E20N,2.53 kcal/mol
7,E20K,2.4 kcal/mol
8,E20W,2.94 kcal/mol
9,E20L,3.14 kcal/mol
10,E20I,2.85 kcal/mol
11,E20D,2 kcal/mol
12,E20T,2.52 kcal/mol
13,E20P,0.742 kcal/mol
14,E20C,2.81 kcal/mol
15,E20F,2.77 kcal/mol
16,E20H,2.64 kcal/mol
17,E20R,2.46 kcal/mol
18,E20Q,2.86 kcal/mol
19,E20V,2.67 kcal/mol
20,E20G,2.13 kcal/mol
21,E20Y,2.56 kcal/mol
22,E20S,2.47 kcal/mol
23,E20A,2.88 kcal/mol
24,R24I,3.23 kcal/mol

row,Variant,folding stability dG
1,R24V,2.85 kcal/mol
2,R24Y,3.62 kcal/mol
3,R24W,3.24 kcal/mol
4,R24F,3.59 kcal/mol
5,R24H,3 kcal/mol
6,R24G,1.93 kcal/mol
7,R24T,2.22 kcal/mol
8,R24Q,2.84 kcal/mol
9,R24N,2.13 kcal/mol
10,R24E,2 kcal/mol
11,R24A,2.56 kcal/mol
12,R24P,0.456 kcal/mol
13,R24M,3.32 kcal/mol
14,R24D,2.29 kcal/mol
15,R24L,3.23 kcal/mol
16,R24K,3.01 kcal/mol
17,R24S,2.19 kcal/mol
18,A19S,1.97 kcal/mol
19,A19V,1.78 kcal/mol
20,A19F,3.12 kcal/mol
21,A19M,3.04 kcal/mol
22,A19R,1.21 kcal/mol
23,A19Q,2.13 kcal/mol
24,A19G,2.75 kcal/mol

row,Variant,folding stability dG
1,A19I,2.47 kcal/mol
2,A19W,3.05 kcal/mol
3,A19T,1.27 kcal/mol
4,A19L,3.39 kcal/mol
5,A19P,0.448 kcal/mol
6,A19K,1.33 kcal/mol
7,A19Y,3.25 kcal/mol
8,A19N,1.72 kcal/mol
9,A19H,2.19 kcal/mol
10,G23K,1.61 kcal/mol
11,G23N,2.01 kcal/mol
12,G23F,1.81 kcal/mol
13,G23V,0.857 kcal/mol
14,G23R,1.63 kcal/mol
15,G23P,0.683 kcal/mol
16,G23M,1.57 kcal/mol
17,G23D,1.39 kcal/mol
18,G23I,0.786 kcal/mol
19,G23T,0.908 kcal/mol
20,G23W,1.64 kcal/mol
21,G23Y,1.75 kcal/mol
22,G23A,1.56 kcal/mol
23,G23H,2.15 kcal/mol
24,G23L,1.47 kcal/mol

row,Variant,folding stability dG
1,G23E,1.11 kcal/mol
2,G23S,1.57 kcal/mol
3,G23Q,1.67 kcal/mol
4,G23C,2.46 kcal/mol
5,T27W,1.8 kcal/mol
6,T27H,2.59 kcal/mol
7,T27K,2.45 kcal/mol
8,T27Y,1.95 kcal/mol
9,T27Q,2.52 kcal/mol
10,T27E,2.03 kcal/mol
11,T27V,2.88 kcal/mol
12,T27S,2.76 kcal/mol
13,T27R,2.56 kcal/mol
14,T27L,1.89 kcal/mol
15,T27N,2.11 kcal/mol
16,T27F,1.94 kcal/mol
17,T27C,3.03 kcal/mol
18,T27A,2.16 kcal/mol
19,T27P,0.682 kcal/mol
20,T27D,1.37 kcal/mol
21,T27G,1.36 kcal/mol
22,T27M,2 kcal/mol
23,T27I,2.94 kcal/mol
